Data on three molecules can be found in publication PMC4941815 (Molecular cell, 2016).

First the molecules themselves.
B2: kdSRPK1, kinase inactive SRPK1 containing K109M (enzyme, UniProt Q96SB4 1-655, looked up)
chain: MERKVLALQARKKRTKAKKDKAQRKSETQHRGSAPHSESDLPEQEEEILGSDDDEQEDPNDYCKGGYHLVKIGDLFNGRYHVIRKLGWGHFSTVWLSWDIQGKKFVAMMVVKSAEHYTETALDEIRLLKSVRNSDPNDPNREMVVQLLDDFKISGVNGTHICMVFEVLGHHLLKWIIKSNYQGLPLPCVKKIIQQVLQGLDYLHTKCRIIHTDIKPENILLSVNEQYIRRLAAEATEWQRSGAPPPSGSAVSTAPQPKPADKMSKNKKKKLKKKQKRQAELLEKRMQEIEEMEKESGPGQKRPNKQEESESPVERPLKENPPNKMTQEKLEESSTIGQDQTLMERDTEGGAAEINCNGVIEVINYTQNSNNETLRHKEDLHNANDCDVQNLNQESSFLSSQNGDSSTSQETDSCTPITSEVSDTMVCQSSSTVGQSFSEQHISQLQESIRAEIPCEDEQEQEHNGPLDNKGKSTAGNFLVNPLEPKNAEKLKVKIADLGNACWVHKHFTEDIQTRQYRSLEVLIGSGYNTPADIWSTACMAFELATGDYLFEPHSGEEYTRDEDHIALIIELLGKVPRKLIVAGKYSKEFFTKKGDLKHITKLKPWGLFEVLVEKYEWSQEEAAGFTDFLLPMLELIPEKRATAAECLRHPWLNS
B3: full-length His-tagged CLK1 (enzyme)
chain: not shown

Read-outs that look alike come from different tables or passages of the source.

The target of test [1] is T1, His-tagged SRPK1 (UniProt Q96SB4 1-655). Put plainly: pull-down.
In test [2] the target is B3. Put plainly: displacement of 32P-phospho-GST-SRSF1 from His-CLK1 on Ni-resin.
Test [3] has as its target T1, His-tagged SRPK1. Briefly: pull-down. The source holds these as a separate data set.
Test [4] addresses B2. Briefly: displacement of 32P-phospho-GST-SRSF1 from His-CLK1 on Ni-resin.

B1: GST-tagged form of the CLK1 N-terminus (domain or fragment, UniProt P49759 1-160, looked up)
chain: MRHSKRTYCPDWDDKDWDYGKWRSSSSHKRRKRSHSSAQENKRCKYNHSKMCDSHYLESRSINEKDYHSRRYIDEYRNDYTQGCEPGHRQRDHESRYQNHSSKSSGRSGRSSYKSKHRIHHSTSHRRSHGKSHRRKRTRSVEDDEEGHLICQSGDVLSAR
In the case of B1, the binding result in test [1] is “binds”.

In the case of B2, in test [2], the “stoichiometry N” value was determined as 1.

With B3, in test [3], the binding result was “binds”. Also, the Kd in test [4] was determined as 16 ± 6 nM.

The term stoichiometry N denotes the number of molecules, sites or subunits per partner or assembly. By Kd is commonly meant the free concentration of one partner at which half of the binding sites on the other are occupied at equilibrium, for simple one-to-one binding. Low readings indicate a tighter complex, high ones a looser complex.
